Laboratory results from patent US20230357364A1 (INTERNATIONAL AIDS VACCINE INITIATIVE, published 2023).
Numbering of substitutions follows the chain as printed. Read-outs that look alike come from different tables or passages of the source.

B1: L25.dP06E11 (antibody, V domains shown)
VH: QVQLVESGGGLVQPGRSLRLSCAASGFTFDDYAMHWVRQAPGKGLEWVSGISWNSGSIGYADSVKGRFTISRDNAKNSLYLQMNGLRAEDTALYYCAKVPQRSRYLVGWFDPWGQGTLVTVSS
VL: not shown
notes: human IgG1
B2: L12.cP08A09 (antibody, V domains shown)
VH: QVQLVQSGAEVKKPGASVKVSCKASGYIYSGYYMHWVRQAPGQGLEWMGWISPDSGGTNYAQRFQGRVTMTRDTSTTTAYMELSRLRSDDTAVYYCARGPRYSGTYFDYWGQGTLVTVSS
VL: QSALTQPASVSGSPGQSITISCTGTSSDVGGYNYVSWYQQHPDKAPKLMIYDVSNRPSGVSNRFSGSKSGNTASLTISGLQAEDEADYYCSSYTSGSTQVFGGGTKLTVL
notes: human IgG1
B3: L25.eP04C02 (antibody, V domains shown)
VH: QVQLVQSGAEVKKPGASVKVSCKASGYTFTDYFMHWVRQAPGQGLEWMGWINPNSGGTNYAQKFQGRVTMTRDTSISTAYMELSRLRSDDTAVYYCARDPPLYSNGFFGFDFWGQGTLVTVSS
VL: B2 VL with A3V, D43G, G96S, Q99V
notes: human IgG1
B4: L12.bP10G07 (antibody, V domains shown)
VH: B2 VH with Q1E, V93M
VL: B2 VL with S2T, A3V, L4V, M49I, D87A, G96S
notes: human IgG1
B5: L12.cP09D03 (antibody, V domains shown)
VH: B2 VH with Y29F, M34T, R63K, T76I, M81V, R85G
VL: B2 VL with A3V, D43G, A45V, G96S, T98A, V100L
notes: human IgG1
B6: L12.bP12H09 (antibody, V domains shown)
VH: B2 VH with Y29F, M34T, R63K, T76I, M81V, R85G
VL: B2 VL with Y34H, D43G, G96S, T98A, V100L
notes: human IgG1

Columns and labels:
SARS-CoV-2 RBD (RBD-2) [1] = target: SARS-CoV-2 RBD (RBD-2) (SARS-CoV-2); test: ELISA
SARS-CoV-1 RBD (RBD-1) = SARS-CoV-1 RBD (RBD-1) (SARS-CoV-1); test: ELISA
[2] = target: T1, SARS-CoV-2 spike on pseudovirus or live virus (USA-WA1/2020, WT) (SARS-CoV-2, UniProt P0DTC2 14-1273); test: cell-based or functional assay
[3] = target: T2, SARS-CoV-1 spike on pseudovirus (SARS-CoV-1, UniProt P59594 14-1255); test: cell-based or functional assay
[4] = target: T1, SARS-CoV-2 spike on pseudovirus or live …; test: cell-based or functional assay; remark: listed apart in the source
[5] = target: T2, SARS-CoV-1 spike on pseudovirus; test: cell-based or functional assay; remark: listed apart in the source
SARS-CoV-2 RBD (RBD-2) [6] = target: SARS-CoV-2 RBD (RBD-2) (SARS-CoV-2); test: flow, HeLa-ACE2, mAb:RBD=2:1
SARS-CoV-2 RBD (RBD-2) [7] = target: SARS-CoV-2 RBD (RBD-2) (SARS-CoV-2); test: SPR, Fc-captured IgG
SARS-CoV-2 RBD (RBD-2) [8] = target: SARS-CoV-2 RBD (RBD-2) (SARS-CoV-2); test: flow, HeLa-ACE2, mAb:RBD=4:1

Binder	EC50 (SARS-CoV-2 RBD (RBD-2) [1]) [µg/mL]	EC50 (SARS-CoV-1 RBD (RBD-1)) [µg/mL]	Maximum Plateau of Neutralization [2] [%]	PSV neutralization IC50 [2] [µg/mL]	PSV neutralization IC50 [3] [µg/mL]	PSV neutralization IC50 [4] [µg/mL]	PSV neutralization IC50 [5] [µg/mL]	% inhibition of RBD binding to hACE2 (SARS-CoV-2 RBD (RBD-2) [6]) [%]	MFI (RBD binding to cell surface) (SARS-CoV-2 RBD (RBD-2) [6])	Kd (SARS-CoV-2 RBD (RBD-2) [7]) [nM]	koff (SARS-CoV-2 RBD (RBD-2) [7]) [s⁻¹]	kon (SARS-CoV-2 RBD (RBD-2) [7]) [M⁻¹ s⁻¹]	% inhibition of RBD binding to hACE2 (SARS-CoV-2 RBD (RBD-2) [8]) [%]	MFI (RBD binding to cell surface) (SARS-CoV-2 RBD (RBD-2) [8])
B1	0.016	0.017	55	34.6	> 50	–	–	–	–	–	–	–	–	–
B2	0.666	> 50	99	1.5	> 50	0.382	> 50	39.4	6800	175	0.0707	404000	49	5740
B3	0.026	> 50	100	0.155	> 50	–	–	–	–	–	–	–	–	–
B4	1.41	> 50	100	0.328	> 50	0.865	–	36.6	7120	220	0.0961	436000	49.2	5710
B5	–	> 50	85	0.135	> 50	0.351	> 50	40.9	6640	147	0.0843	575000	50.1	5620
B6	0.483	> 50	100	0.106	> 50	0.062	> 50	41.6	6560	155	0.12	773000	54.7	5100
